This is an account of results in patent publication US20260217813A1 (published 2026).

Where a chain is given by its changes, count along the chain named.

In experiment [1] the target is T1, human IL-23 (IL-23-His-Biotin, Akesobio, 20161209) (human, UniProt Q9NPF7 20-189; P29460 23-328).
T1 construct: His-tagged and biotinylated; also called human IL23-His-Biotin
T1 sequence (looked up) 1: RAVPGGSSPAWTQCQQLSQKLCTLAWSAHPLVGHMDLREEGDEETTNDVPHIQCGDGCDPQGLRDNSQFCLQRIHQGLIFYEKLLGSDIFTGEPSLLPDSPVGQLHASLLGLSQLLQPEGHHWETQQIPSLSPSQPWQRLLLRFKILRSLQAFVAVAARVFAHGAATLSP
T1 sequence (looked up) 2: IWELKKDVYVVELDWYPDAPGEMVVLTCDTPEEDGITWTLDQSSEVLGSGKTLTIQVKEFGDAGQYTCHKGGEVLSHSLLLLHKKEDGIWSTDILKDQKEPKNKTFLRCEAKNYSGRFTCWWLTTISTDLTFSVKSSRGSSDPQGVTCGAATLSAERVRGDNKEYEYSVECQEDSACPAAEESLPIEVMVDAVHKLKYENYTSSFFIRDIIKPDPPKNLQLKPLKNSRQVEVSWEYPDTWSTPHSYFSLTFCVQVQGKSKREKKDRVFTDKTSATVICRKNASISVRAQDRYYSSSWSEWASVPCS
Nature of the experiment: FACS competition, IL-23-His-Biotin 2 µg/mL on 293T-IL-12RB1&IL-23R cells, antibody 0.12 µg/mL. The protocol:
(§1) 2.1. […] 200 μL of 1% PBSA was added into each sample, and the mixture was centrifuged at 700×g for 5 min to discard the supernatant. According to experiment design, correspondingly diluted antibody (highest final concentration of 30 μg/mL, 3-fold dilution, 8 concentrations in total) and human IL-23 (IL-23-His-Biotin, Akesobio, 20161209) (final concentration of 2 μg/mL) were mixed at a ratio of 1:1, and a blank control was set. The mixture of antibody and human IL23 was incubated on ice for 30 min and then added to the cell precipitate at 100 μL/sample. The resulting mixture was well mixed and incubated on ice for 60 min. 200 μL of 1% PBSA was added, and the mixture was centrifuged at 700×g for 5 min to discard the supernatant, and then washed twice. FITC Streptavidin (Biolegend, Cat. No.: 405202) was diluted at a ratio of 1:500 and added to each tube at 100 μL. The mixture was well mixed and incubated on ice for 40 min in the absence of light. 200 μL of 1% PBSA was added, and the mixture was centrifuged at 700×g for 5 min to discard the supernatant, and then washed twice. 1% PBSA was added at 200 μL/tube, and the cells were resuspended and transferred to a flow cytometry tube for testing.

Experiment [2] deals with T1, human IL-23 (IL-23-His-Biotin, …). Nature of the experiment: FACS competition, IL-23-His-Biotin 2 µg/mL on 293T-IL-12RB1&IL-23R cells, antibody 0.37 µg/mL. The protocol: as §1
For experiment [3], the target named is T2, IL-12 (Human IL12 (His Tag)), Sino Biological Cat. No. CT-050-H08H-20 (human, UniProt P29460 23-328; P29459 23-219).
T2 construct: Bought His-tagged p35/p40 heterodimer
T2 sequence (looked up) 1: T1 sequence (looked up) 2
T2 sequence (looked up) 2: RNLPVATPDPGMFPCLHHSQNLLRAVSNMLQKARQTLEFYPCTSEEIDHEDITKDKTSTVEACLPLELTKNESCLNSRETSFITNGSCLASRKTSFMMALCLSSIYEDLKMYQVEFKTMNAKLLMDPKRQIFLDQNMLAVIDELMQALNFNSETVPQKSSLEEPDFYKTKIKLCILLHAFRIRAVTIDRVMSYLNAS
Nature of the experiment: FACS competition, IL-12-His 20 nM on 293T-IL-12RB1&IL-23R cells, antibody 0.01 µg/mL. The protocol: (§2) 200 μL of 1% PBSA was added into each sample, and the mixture was centrifuged at 700×g for 5 min to discard the supernatant. According to experiment design, correspondingly diluted antibody (highest final concentration of 30 μg/mL, 3-fold dilution, 8 concentrations in total) and human IL-12 (Sino Biological, Cat. No.: CT-050-H08H-20) (final concentration of 20 nM) were mixed at a ratio of 1:1, and a blank control was set. The mixture of antibody and human IL12 was incubated on ice for 30 min and then added to the cell precipitate at 100 μL/sample. The resulting mixture was well mixed and incubated on ice for 60 min. 200 μL of 1% PBSA was added, and the mixture was centrifuged at 700×g for 5 min to discard the supernatant, and then washed twice. Alexa Fluor® 488 anti-His tag antibody (Biolegend, Cat. No.: 652509) was diluted at a ratio of 1:400 and added to each tube at 100 μL. The mixture was well mixed and incubated on ice for 40 min in the absence of light. 200 μL of 1% PBSA was added, and the mixture was centrifuged at 700×g for 5 min to discard the supernatant, and then washed twice. 1% PBSA was added at 200 μL/tube, and the cells were resuspended and transferred to a flow cytometry tube for testing.

Experiment [4] addresses T2, IL-12 (Human IL12 (His Tag)), Sino …. Nature of the experiment: FACS competition, IL-12-His 20 nM on 293T-IL-12RB1&IL-23R cells, antibody 0.04 µg/mL. The protocol: as §2
Experiment [5] addresses T1, human IL-23 (IL-23-His-Biotin, …). Nature of the experiment: FACS competition, IL-23-His-Biotin 2 µg/mL on 293T-IL-12RB1&IL-23R cells, antibody 0.04 µg/mL. The protocol: as §1
Experiment [6] has the same target. Nature of the experiment: FACS competition, IL-23-His-Biotin 2 µg/mL on 293T-IL-12RB1&IL-23R cells, antibody 10 µg/mL. The protocol: as §1
Experiment [7] shares this target. Nature of the experiment: FACS competition, IL-23-His-Biotin 2 µg/mL on 293T-IL-12RB1&IL-23R cells, antibody 30 µg/mL. The protocol:
as §1

The target of experiment [8] is T2, IL-12 (Human IL12 (His Tag)), Sino …. Nature of the experiment: FACS competition, IL-12-His 20 nM on 293T-IL-12RB1&IL-23R cells, antibody 0.12 µg/mL. The protocol: as §2

B1: ustekinumab (trade name Stelara) (antibody, V domains shown)
VH: EVQLVQSGAEVKKPGESLKISCKGSGYSFTTYWLGWVRQMPGKGLDWIGIMSPVDSDIRYSPSFQGQVTMSVDKSITTAYLQWNSLKASDTAMYYCARRRPGQGYFDFWGQGTLVTVSS
VL: DIQMTQSPSSLSASVGDRVTITCRASQGISSWLAWYQQKPEKAPKSLIYAASSLQSGVPSRFSGSGSGTDFTLTISSLQPEDFATYYCQQYNIYPYTFGQGTKLEIK
In the case of B1, the MFI in experiment [1] was 211; in experiment [2], 186; in experiment [3], 160; in experiment [4], 150; in experiment [5] it was 216; in experiment [6], 11.5. The MFI in experiment [7] worked out at 9.64; in experiment [8] it was 137.

B2: H5L9 (antibody, human IgG1, kappa, V domains shown)
VH: EVQLVQSGAEVKKPGESLKISCQSSGYSFTTYWIGWVRQMPGQGLEWIGIMSPVDSDIRYNPMFRGQVTMSVDKSSSTAYLQWSSLKASDTAMYYCARRRPGQGYFDFWGQGTMVTVSS
VL: DIQMTQSPSSLSASVGDRVTITCKASQNVGSWLAWYQQKPGKAPKSLIYSASSRQSGVPSRFSGSGSGTDFTLTISSLQPEDFATYYCQQYDIYPFTFGQGTKLEIKR
notes: Humanized anti-human IL-12/IL-23 p40 antibody; IgG1 (P01857) / kappa (P01834) constant regions
B2: the MFI in experiment [1] was found to be 217; in experiment [2], 206; in experiment [3] it was 169; in experiment [4], 158; in experiment [5] it was 221; in experiment [6], 136. Also, the results for the MFI in experiment [7] and in experiment [8] were 104 and 160, respectively.

B3: H5L10 (antibody, human IgG1, kappa, V domains shown)
VH: B2 VH
VL: EIVLTQSPATLSASPGERATISCRASQSVGSWLAWYQQKPGQAPRSLIYAASNLQSGIPARFSGSGSGTDFTLTISSLEPEDFAVYYCQQYNIYPYTFGQGTRLEIKR
notes: IgG1/kappa
As to B3, the MFI turned out to be 221 in experiment [1]; 169 in experiment [2]; 163 in experiment [3]; 154 in experiment [4]; 230 in experiment [5]; 12.7 in experiment [6]. The MFI worked out at 11.9 in experiment [7] and 151 in experiment [8].

B4: H5L12 (antibody, human IgG1, kappa, V domains shown)
VH: B2 VH
VL: B3 VL with G30S, L54R
notes: IgG1/kappa
As to B4, the MFI was 211 in experiment [1]; 177 in experiment [2]; 161 in experiment [3]; 149 in experiment [4]; 234 in experiment [5]; 12.7 in experiment [6]. Moreover, the MFI in experiment [7] is 12.3; in experiment [8], 133.

B5: H5L11 (antibody, human IgG1, kappa, V domains shown)
VH: B2 VH
VL: B3 VL with G30S, A50S
notes: IgG1/kappa
Regarding B5, the MFI in experiment [1] was 219; in experiment [2] it was 179; in experiment [3] it was 166; in experiment [4] it was 151; in experiment [5], 224; in experiment [6], 14.5. In addition, the MFI is 12.9 in experiment [7] and 145 in experiment [8].

B6: H5L14 (antibody, human IgG1, kappa, V domains shown)
VH: B2 VH
VL: B3 VL with G30S, Y96F
notes: IgG1/kappa
Take B6: the MFI was 203 in experiment [1]; 179 in experiment [2]; 149 in experiment [3]; 155 in experiment [4]; 216 in experiment [5]; 16.7 in experiment [6]. Also, the MFI stood at 14.1 in experiment [7] and 146 in experiment [8].
